Experiments:
[1] = biological target: ILT7 on the ILT7+ NFAT-GFP reporter mouse cell line (CT550) (human) (UniProt P59901)
[2] = biological target: T1, baculovirus-expressed soluble ILT7 (residues 24 to 435) (human, UniProt P59901 24-435); experiment: SPR; Biacore 3000; GST-BST2 covalently immobilised on a CM5 chip by amine coupling (6550 RU); bacILT7 serially diluted and passed over at 10 ul/min; running buffer HBS-PE (10 mM HEPES pH 7.5, 150 mM NaCl, 3 mM EDTA, 0.005% Tween-20); GST-coated reference cell subtracted; 1:1 Langmuir model, local Rmax; details: both partners purified
T1 construct: immunoglobulin-like transcript 7 (ILT7, LILRA4, CD85g), human, residues 24 to 435, from a synthetic codon-optimized gene; Cloned into the transfer vector pFL and transposed into the EMBacY bacmid; also called bacILT7; LILRA4
T1 sequence (P59901 24-435): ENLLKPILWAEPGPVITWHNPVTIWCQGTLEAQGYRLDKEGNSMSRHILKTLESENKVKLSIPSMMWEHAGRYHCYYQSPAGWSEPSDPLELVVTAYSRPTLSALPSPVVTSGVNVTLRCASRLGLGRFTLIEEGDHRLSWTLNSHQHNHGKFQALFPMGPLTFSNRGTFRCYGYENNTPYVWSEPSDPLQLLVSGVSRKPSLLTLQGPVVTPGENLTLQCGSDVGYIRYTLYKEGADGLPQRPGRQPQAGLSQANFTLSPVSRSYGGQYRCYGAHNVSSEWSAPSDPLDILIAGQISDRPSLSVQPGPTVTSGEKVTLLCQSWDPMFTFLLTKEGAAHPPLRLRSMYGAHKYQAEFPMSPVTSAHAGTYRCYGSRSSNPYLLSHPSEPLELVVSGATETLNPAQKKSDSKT

ILT7 on the ILT7+ NFAT-GFP reporter mouse cell line (CT550) (human), sequence (P59901 24-499): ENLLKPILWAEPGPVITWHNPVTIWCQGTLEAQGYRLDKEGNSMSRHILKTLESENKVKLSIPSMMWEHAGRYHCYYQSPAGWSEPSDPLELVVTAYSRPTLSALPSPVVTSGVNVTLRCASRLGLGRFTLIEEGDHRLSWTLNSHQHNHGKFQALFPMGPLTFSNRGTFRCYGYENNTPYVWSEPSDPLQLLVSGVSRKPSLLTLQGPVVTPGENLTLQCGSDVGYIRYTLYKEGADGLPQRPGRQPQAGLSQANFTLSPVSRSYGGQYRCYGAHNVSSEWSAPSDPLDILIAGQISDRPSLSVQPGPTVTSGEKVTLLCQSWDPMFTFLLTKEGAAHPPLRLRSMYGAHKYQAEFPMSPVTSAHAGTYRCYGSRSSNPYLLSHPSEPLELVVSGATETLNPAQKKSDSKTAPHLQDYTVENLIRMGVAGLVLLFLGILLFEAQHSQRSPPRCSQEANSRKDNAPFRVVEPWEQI

Q: How did the percentage of NFAT-GFP positive ILT7+ reporter cells after co-culture with BST2-expressing HEK293T cells (no HIV) [1] turn out when “WT BST2 expressed on HEK293T cells (from UniProt Q10589 1-161) (natural protein)” was run?
A: 99%

Q: And the percentage of NFAT-GFP positive ILT7+ reporter cells after co-culture with BST2-expressing HEK293T cells producing WT HIV (Vpu present) [1]?
A: 74%

Q: And the percentage of NFAT-GFP positive ILT7+ reporter cells after co-culture with BST2-expressing HEK293T cells producing dU HIV (no Vpu) [1]?
A: 48%

B1: recombinant GST-tagged ectodomain of BST2 (residues 47 to 159) (domain or fragment)
chain: KANSEACRDGLRAVMECRNVTHLLQQELTEAQKGFQDVEAQAATCNHTVMALMASLDAEKAQGQKKVEELEGEITTLNHKLQDASAEVERLRRENQVLSVRIADKKYYPSSQD
notes: BST2/Tetherin (CD317), human, extracellular domain, residues 47 to 159; a region common to the short and the long BST2 isoforms; Cloned into the pBADM30 expression vector as a His-tagged GST-N-terminus fusion protein; also called GST-BST2; BST2/Tetherin; not shown: GST, N-terminal, kept
Q: B1 was tested. Which Kd [2] did it give?
A: 2330 nM

Q: And the koff [2]?
A: 0.00308 s⁻¹

Q: And the kon [2]?
A: 1250 M⁻¹ s⁻¹
